Measured values as given in the DeepSol protein solubility set.

Experiment: soluble on expression in E. coli; label from the status in PepcDB or PDB records

Row | Sequence | soluble on expression in E. coli
1 | MKPKAMIRTMAIMKTADILKAMDITEELAKRMGFLPRDCLFLRLATEEACTNAYEYCQKTRKLPFRIFWKMEARQFMIIVKQRGGCFSVAQTDVVNTGPRGRGLQLITHIVDDVYVKQAGNNVLFCMCKCKK | not soluble
2 | MKPKPLKCITSHHYIIKFYDKSNLRTSLYLLIFKEHKDYREQMKVYIIDYHKDDPKRCTGKKLVKLKIAEFTRVGKGVVLDPFAQITLSNKDKDIVRRIGITIVDTSWNNTSQSEFKNIRGEHRRIPILFAGNPIHYGIAYKLSSIEALIATLYIVDEVEEAIKLSNVVKWGHTFIELNKELLEAYKNKTEEDIKKIEREIIEKILEKLEHHHHHH | not soluble
3 | MKPLAQLLLFLLQFQKGNLVSQSSSTPLMVNGVLGESVTLPLEFPAGERIQFITWLCNGTSFAFLEPYEGKSPKIYVTHPKWQKRLSFTQSYSPQLSNLEMENIGFYSAQIATETSAKLSSYTLRIFKQLPRPQVRVDSIISENGICNAILRCSVEEGGETITYEWTSMGPGAAVSHVGSVLYGSWSLHDLDWIYTCTALNPVSYSNSTLTLAAQLCASSKAAEGTYCPVKWIFLGNRLLLLVFLGVLRTWHIQAQVLSKPLRPNSG | not soluble
4 | MKPRESMVRLKMFQVRGKRREIAQLEMMIAEFERMVLELEAQIVHEECKSGNSDVHHFAYSALARAARQRRDNLINSIRDLQLQKTNAEIALHEVTTELQRAQLLEARENGGVAGEKDIFMQSRSMTG | not soluble
5 | MKPRPQSDAVDNEGPTPLSKGRRHLAMRLDDAWLGFQTRLAIRRGRVETVIPYTGYGSTSWVRVLARIVRSDPRDAAGHTNPLQESMRGWRNFTSAPVAHASVQVTIDGTVHDVVADRGGVVDARIPVALDAGWHTITLRSGESETVEAPVEIVADDAVFGVVSDIDDTVMVTALPRPFLAAWNTFVLNEHARTPTPGMAVLYERIARTAPSAPVLYLSTGAWNVAPTLSRFLSRNLYPAGPKLLTDWGPTPDRWFRSGQEHKRTSLERLAEEFPNIKWLLVGDDGQHDEAIYSEFAQRHPASVRAIAIRQLSAGEAVLAGGRSKSGGQPTPGVPWIYAPDGAGMSAQLEELGIIRNEVRSADDPEEGEVTTGSDLEHHHHHH | soluble
6 | MKQIESAKNQKVKDWKKLHTKKERTKTNTFLIEGEHLVEEALKSPGIVKEILVKDETRIPSDLETGIQCYMLSEDAFSAVTETETPQQIAAVCHMPEEKLATARKVLLIDAVQDPGNLGTMIRTADAAGLDAVVLGDGTADAFNGKTLRSAQGSHFHIPVVRRNLPSYVDELKAEGVKVYGTALQNGAPYQEIPQSESFALIVGNEGAGVDAALLEKTDLNLYVPLYGQAESLNVAVAAAILVYHLRG | soluble
7 | MKQILCTLDYELYGNGTGDVFEHIIKPTEELLAIARRHGIKYTIFFEVVEFWYLKREWERGNKMGYTEDPISAMEQQLREAYLQGHDVQLHLHPQWIGAVHQDGQWRLDLSNWCLGRYQGKGEYSLLSLLKRGKETIEEIIRPVDPHYSCIALRAGGYNAQPSEEIVRAMRQVGLKVDSSIYPGGFETGALSNYDYSSVAPDLGHWYVEDRLEYSAHGATDILELPIVAFPIRRLQKYLSLDRIKALFQNRKSAADTYSAKTANKGGIWGKISYFVELEWQTWDFCLFSKNLHRRFLKRVESQRGRKEFVLVGHPKSFVSGESFNYLIGQLKSSYQFLSMTELYDQRLKIGTKKGVKDTHKPETPAPEGPSPEGPEAGL | not soluble
8 | MKQITIASRESKLALWQTNFVKNRIQLELNIPCEISTMKTQGDIILDQPLNKIGGKALFMKELEVAMLSNKADIAVHSLKDVPYQLPQGFCLAGFMPREDPRDAFVSNKYNSIDDLPKGAVVGTSSLRRKAQLLHYRDDLEIRDLRGNIQTRLSKLDNGDYDAIILASAGLIRLELVERITQFIPVEISLPAVGQGIVVIEALERDNDLLEKIQKLNCRESSRVATAERAFNQELKGGCHVAIGAYAELDNNQITLMAMVASSDGKKILKRKMIGDDPTKLGKLLAQEMIALGAYKILES | not soluble
9 | MKQLKSLDSDLEKAIGRISGGLYIITAQKGEVKGAMLASWVSQASFNPPGFTVAVAKDRAIESLMQVGDRFVLNILEEGNYQILMKHFLKRFPPGADRFAGVKTQTASNGSPILTDALAYLECEVASRMECSDHWIVYSQVTNGRVAKAEGLTAVHHRKVGNYYLEHHHHHH | not soluble
10 | MKQLSSFDIKACVRELKELEGGKVEKVYHHPPDEIRIRIYAGRKVDLVIEAGRRIHLTKFPKQAPRFPSAFAMLLRKHLEGARIKKIEQYDFDRVVVIEFERFGEIRRIVAELFSKGNVVLLNEENRVIMPLKHTIKVGELYRFPEQRERKDEDREVVRVLAMSGLGGLYAEEVCLRAGIDKKKKYAELSEDERKKIDEEIERLMNFTPKPQIILKDGDYLDVVPMDLLYYSNYEKKYFESFNDALDDYFSKKLAEMDELESMKSEELEKLKKRLEIQKESLRKFEDEAESFRKIGDAIYENYQMVEKIIEAFRAARERKSWDEIKEIVARDEKLKKLVKAIKPEKNAIVVKVGDFDVELEIKKSIHENADLYYEKAKKAREKAEGVKRAIEATLREMERVEEKLEKKLVTSIKVRRKKEWYE | not soluble
11 | MKQNKLHYTTMIMTQFPDISIQSVESLGEGFRNYAILVNGDWVFRFPKSQQGADELNKEIQLLPLLVGCVKVNIPQYVYIGKRSDGNPFVGYRKVQGQILGEDGMAVFPDDAKDRLALQLAEFMNELSAFPVETAISAGVPVTNLKNKILLLSEAVEDQVFPLLDESLRDYLTLRFQSYMTHPVYTRYTPRLIHGDLSPDHFLTNLNSRQTPLTGIIDFGDAAISDPDYDYVYLLEDCGELFTRQVMAYRGEVDLDTHIRKVSLFVTFDQVSYLLEGLRARDQDWISEGLELLEEDKANNFGANSA | not soluble
12 | MKQPFERILREICFMVKVEGRKVLRDFGITPAQFDILQKIYFEGPKRPGELSVLLGVAKSTVTGLVKRLEADGYLTRTPDPADRRAYFLVITRKGEEVIEKVIERRENFIEKITSDLGKEKSSKILDYLKELKGVMERNFSKQ | soluble
13 | MKQQAIDEQLRNAIEYTPEMFTQVPMLYINIEINNYPVKAFVDTGAQTTIMSTRLAKKTGLSRMIDKRFIGEARGVGTGKIIGRIHQAQVKIETQYIPCSFTVLDTDIDVLIGLDMLKRHLACVDLKENVLRIAEVETSFLSEAEIPK | soluble
14 | MKRDAKDHARNRLMNFYIKKAPTYSAIVKIEHFENDAPSEAKDFEPLVVYSLNKKKRWEINQEFLDSSSEGDDSKSVIIDREIPDLYFAWWSLGNVHSHDCVNHSKPVNSSQIDNAKKEEKVVGYHIVRVPKNHKKVFDNKCIRYIGLRYPEFLGYSSKDWPALQYEMKELEEEHEELEKENASLEAESTETTKPTGFYNLDEHFVAKKQRKPKGWLTVE | not soluble
15 | MKREQVMGEGNYSLASHHIFGVDNANKMLFSPLDNAKNGMKIYLTDKNKVYTYEIREVKRVTPDRVDEVDDRDGVNEITLVTCEDLAATERIIVKGDLKETKDYSQTSNEILTAFNQPYKQFY | not soluble
16 | MKRIGVLTSGGDSPGMNAAIRSVVRKAIYHGVEVYGVYHGYAGLIAGNIKKLEVGDVGDIIHRGGTILYTARCPEFKTEEGQKKGIEQLKKHGIEGLVVIGGDGSYQGAKKLTEHGFPCVGVPGTIDNDIPGTDFTIGFDTALNTVIDAIDKIRDTATSHERTWVIEVMGRHAGDIALYSGLAGGAETILIPEADYDMNDVIARLKRGHERGKKHSIIIVAEGVGSGVDFGRQIQEATGFETRVTVLGHVQRGGSPTAFDRVLASRLGARAVELLLEGKGGRCVGIQNNQLVDHDIAEALANKHTIDQRMYALSKELSI | soluble
17 | MKRILNYPGSKWGLADLIIENMPEHKSYLEPFCGSCAVFMNKQKATLETINDLDGRLVNLFKTMRDNPEELQYLIMHTLYSREEYMLSHEISSDSLEDARRMAVRLWFAVGGKTNANVGFRKNVSWNGPYNAYEWNDMYNRIGIAAARLKDAQIENVDAIKLIEQHNDKDTLIYCDPPYVATSLASSHYQHDFSLEQHKELLKVLKKHEGKVMLSGYESELYKQELSDWPALKTMTKVGITSEKKSDRQEIIWCNFEPPMQLNLFKEEQA | not soluble
18 | MKRKIIVACGGAVATSTMAAEEIKELCQSHNIPVELIQCRVNEIETYMDGVHLICTTARVDRSFGDIPLVHGMPFVSGVGIEALQNKILTILQG | soluble
19 | MKRLRCIREIERQRGTRVIAMIHRQEALTFLGIPIYKFITIEDSEEILRAIRLTPEDMPIDLIIHTPGGLALASEQIALALKEHKAKTTVIIPHYAMSGGSLIALAADEIIMDKNAVMGPVDPQIGQYPAASILEAYYRKGEKVSDETLILVDISKKAIKQMEEFVYELLKDKYGDEKAKEIAKKLTSGTW | not soluble
20 | MKRRLLCALLASTLAQPLTVRADLPDLGEISDASLSLSDEARIGRDALRAMREAGDVVDDPEVNAYLNDVGGRLAAAAAVPGVRFTYFCVADAGINAFAMPGGYVGINIGLMLASQSEGELAAVLGHETAHVAQRHIARMQAANSAASPLLLLGTIVAAALAAKAGSGDGAMGAVSAGMGLSISRQLAFSRDFEREADRVGMQYMSAAGFDVRNMAAFFQRLEQASRYSDNTAYAFLRTHPVTLERISEAQNRALDYPVRMRADSVDYLLVREKLRVLTLSPEEAVSHYSSALQRGLYLNEGANWYGLARAKLLQHDRAGASEALAKARAKLPDNPMLYGLEVEIARDGRDWAAAARAARNGLSAFPRSVSLQLAQLDVALDGGDRKAAQAQLRQLLDSRRDDPALYRREAKLYADKDPLRYHAALGNAFYYEQRYGAALEQYQLAGKAKGDDFYLRSMLEARLREVEKLAKEERKAARNLEHHHHHH | soluble
21 | MKRTIILFDINETVLNLSALKPKFKATFGDESVMATWFSMLLHSSTVCIMTSVKTDFATLAGTMLESIAARMSIKLSKAARDDILAGFANLPPHNDIKPALAQLKSAGFRTVAFSNSSLNLISTQITNAGLKEYFDDIISVEETGSFKPDPTVYKFAAKRLNQPLESLRLVATHDWDTHGALSVEMRAAYINRSGAVYHPLYRQPDIYATTMEDIVKLIIEKDD | not soluble
22 | MKRTVTVKLQPSKAQEETLKELAIISSKAWNKVNYLRRQEFFEGKPVDFLKTEKIVYEEFKSEIGSATVQQICRKNADAWRSFFSLIRSKRNGELPKWFKPKPPEYVKEGGLIILRNDQYKIEGNKLILKGLGKFKRLEVQFKGRIHLKGKQGRLEITFDPIRRKWYAHISYTVKEKLYGGEWVEVLRQPLGNLSAGIDLGVNNLMAVYVENGESFLVNGRPLKSIDFYWRKRIAEYQSKLNKSGVKKGRKLSKMHQKAKLQAKHYINTAIRRTVEKLYHLGVSRIVVGYPKGISRNSDKGKKQNYLLSHVWRFNYVIKRLREVAEEYGIQVLIVDEAFTSKLCPVCGKPHKGQGLFEDYLSVPRRGLPLMPTWLELSTFLEHHHHHH | soluble
23 | MKRVRLQEVAQVAGVSLGLASAVLNGRHVRARPETVERIREAAQRLGYVPDRMAQAMRWGRTGIIALVVPNFANPYYSALAVEVQRAAWEADLEVLVYANPTEDLAQVSRAVSARRVDGGIIVVSHYTPEELKAHLPLEIPWVGVGHALEPLPFDRVSFKDKEAAMDAVRYLADKGYRRIAHLAGPAPSPTAKARLEGYLEAVSALGMPALVQEGTFRYGDNQRALQTLLGWRADALLAGNDLMALEALAFLQDRGVPVPQGMAVVGFDGIPMGEWVRPQLTTIVRSPRASAQAALARLLARLEGAGEPPQEVWLDTSLRPGDSA | soluble
